# Experimental data: publication PMC7910558, “The HIF-1α antisense long non-coding RNA drives a positive feedback loop of HIF-1α mediated transactivation and glycolysis”
# B1: HIFAL nt 1-60 (structured_RNA)
# RNA: UCAUGUAGCGCCAGCCACACCAGGAACAGAAGGGUGCCGGGUACCUUCCGCAUGCUUGGU
# B2: HIFAL nt 501-560 (structured_RNA)
# RNA: UGCAUGGUGCUUACUAAUAACACAGUGGUAUUCUAAACAUUUUUCACCUAUUAUUUAAUC
# What was measured:
# PKM2 (EMSA) = PKM2 (EMSA) (UniProt P14618 1-531); test: EMSA; Pull-down: RNA folded in 10 mM Tris pH 7, 0.1 M KCl, 10 mM MgCl2, then 5 µg RNA with 5 mg lysate in Pierce IP lysis buffer, 1 h, room temperature; EMSA: LightShift chemiluminescent RNA EMSA kit, buffer not given; conditions: protein: recombinant; label: biotin-16-UTP; two predicted hairpins (nt 4-19, nt 30-57)
# Sequence of PKM2 (EMSA) (P14618 whole entry): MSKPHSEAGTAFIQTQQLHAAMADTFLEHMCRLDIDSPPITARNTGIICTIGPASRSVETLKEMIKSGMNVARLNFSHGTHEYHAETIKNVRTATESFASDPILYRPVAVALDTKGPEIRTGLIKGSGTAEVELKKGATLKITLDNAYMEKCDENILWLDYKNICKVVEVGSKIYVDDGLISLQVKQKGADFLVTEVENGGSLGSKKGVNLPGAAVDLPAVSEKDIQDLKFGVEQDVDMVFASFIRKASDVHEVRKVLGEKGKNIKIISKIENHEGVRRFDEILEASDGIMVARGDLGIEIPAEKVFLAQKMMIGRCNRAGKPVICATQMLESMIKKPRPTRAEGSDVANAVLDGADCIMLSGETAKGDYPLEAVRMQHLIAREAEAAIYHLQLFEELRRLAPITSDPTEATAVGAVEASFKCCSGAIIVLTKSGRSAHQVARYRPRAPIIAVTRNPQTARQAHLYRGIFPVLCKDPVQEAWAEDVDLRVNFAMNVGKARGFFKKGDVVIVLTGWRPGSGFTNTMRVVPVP
# PHD3 (EMSA) = PHD3 (EMSA) (UniProt Q9H6Z9 1-239); test: as above; conditions: protein: recombinant, label: biotin-16-UTP
# Sequence of PHD3 (EMSA) (Q9H6Z9 whole entry): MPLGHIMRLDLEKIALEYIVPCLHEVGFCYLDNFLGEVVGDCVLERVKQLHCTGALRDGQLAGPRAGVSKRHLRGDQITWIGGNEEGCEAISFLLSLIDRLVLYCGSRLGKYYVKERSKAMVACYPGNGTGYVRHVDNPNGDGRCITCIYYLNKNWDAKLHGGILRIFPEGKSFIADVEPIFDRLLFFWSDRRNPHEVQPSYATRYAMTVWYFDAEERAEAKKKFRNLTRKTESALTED
binder,measurement,setting,value
B1,binding result,PKM2 (EMSA),binds
B2,binding result,PHD3 (EMSA); predicted hairpin (nt 506-532),binds
UGCAUGUCUAAACAUUUUUCACCUAUUAUUUAAUC (ssRNA) [HIFAL 501-560 ΔhC (mC)],binding result,PHD3 (EMSA),no binding
